Values of other authors, collected in paper PMC7294136.
pKd: −log10 of the molar value.

Tests used:
[1] = target: RAGE (Homo sapiens) (UniProt Q15109); experiment: SPR
[2] = target: RAGE V domain (Homo sapiens) (UniProt Q15109)

Row | pKd [1] | pKd [2] | Substance
1 | 6.86 |  | S100A4 (from UniProt P26447)
2 |  | 6.30 | S100B (from UniProt P04271)
